Measured values from US6448377.

Biological target: β2 adrenoceptor, tagged at the amino-terminus with the FLAG epitope (UniProt P07550)
Assay: cell-based or functional assay

GTPγS-sensitive high-affinity agonist binding sites: 30%
basal GTPase activity, tetGsα membranes compared to Gsα membranes: 1.6 fold
isoproterenol-stimulated GTPase activity, tetGsα membranes compared to Gsα membranes: 2.8 fold
Substance: membrane-tethered Gsα (tetGsα) (from UniProt P07550 1-64; P07550 343-412)
